For four substances, percent of parent results are on record in PMC5477490.

This experiment has as its target 3E1 Fab, P01857;P01834. The conditions noted are these: parent: est. 100; read off a plot.
Consider “full-length, wild-type HA from A/Washington/05/2011 (H1N1) HA1:H38S”, for which the percent of parent was 97%.

For the substance “full-length, wild-type HA from A/Washington/05/2011 (H1N1) HA2:D19A”, the percent of parent was found to be 100%.

For “full-length, wild-type HA from A/Washington/05/2011 (H1N1) HA1:H18L”, the percent of parent was 100%.

“full-length, wild-type HA from A/Washington/05/2011 (H1N1) HA2:Y34M”: the percent of parent worked out at 100%.
